Test results published in patent publication US20070224188A1.

biological target: biotin-labeled soluble FcRn; test: FcRn ELISA pH 6.0

| FcRn pH6.0 (% of wild type) | FcRn6.0 (% of wild type) | Substance |
| --- | --- | --- |
| 0 |  | anti-CD20 IgG1 S254F (antibody) |
| 302 |  | anti-CD20 IgG1 T307M (antibody) |
| 442 |  | anti-CD20 IgG1 P343Q (antibody) |
| 92 |  | anti-CD20 IgG1 I332N (antibody) |
| 151 |  | anti-CD20 IgG1 A431H (antibody) |
| 126 |  | anti-CD20 IgG1 H268E (antibody) |
| 103 |  | anti-CD20 IgG1 D376R (antibody) |
| 0 |  | anti-CD20 IgG1 I253A (antibody) |
| 67 |  | anti-CD20 IgG1 A339G (antibody) |
| 102 |  | anti-CD20 IgG1 L235A (antibody) |
| 94 |  | anti-CD20 IgG1 Q311Y (antibody) |
| 164 |  | anti-CD20 IgG1 Q438W (antibody) |
| 97 |  | anti-CD20 IgG1 S424H (antibody) |
| 138 |  | anti-CD20 IgG1 D249P (antibody) |
| 98 |  | anti-CD20 IgG1 E269Q (antibody) |
| 110 |  | anti-CD20 IgG1 E272N (antibody) |
| 345 |  | anti-CD20 IgG1 P343E (antibody) |
| 447 |  | anti-CD20 IgG1 P257V (antibody) |
| 95 |  | anti-CD20 IgG1 E283M (antibody) |
| 103 |  | anti-CD20 IgG1 N315L (antibody) |
| 96 |  | anti-CD20 IgG1 I332A (antibody) |
| 119 |  | anti-CD20 IgG1 K288P (antibody) |
| 7 |  | anti-CD20 IgG1 L251I (antibody) |
| 38 |  | anti-CD20 IgG1 L432R (antibody) |
| 126 |  | anti-CD20 IgG1 Q438T (antibody) |
| 33 |  | anti-CD20 IgG1 D265Y (antibody) |

| FcRn pH6.0 (% of wild type) | FcRn6.0 (% of wild type) | Substance |
| --- | --- | --- |
| 102 |  | anti-CD20 IgG1 P238V (antibody) |
| 181 |  | anti-CD20 IgG1 V279Q (antibody) |
| 78 |  | anti-CD20 IgG1 V279L (antibody) |
| 78 |  | anti-CD20 IgG1 D249E (antibody) |
| 190 |  | anti-CD20 IgG1 T256P (antibody) |
|  | 86 | anti-CD20 IgG1 256P314Y332E440Y (antibody) |
| 855 |  | anti-CD20 IgG1 N434H (antibody) |
| 137 |  | anti-CD20 IgG1 E283G (antibody) |
| 83 |  | anti-CD20 IgG1 P343M (antibody) |
| 93 |  | anti-CD20 IgG1 I332Y (antibody) |
| 1340 |  | anti-CD20 IgG1 N434W (antibody) |
| 115 |  | anti-CD20 IgG1 I332V (antibody) |
| 107 |  | anti-CD20 IgG1 Y373R (antibody) |
| 119 |  | anti-CD20 IgG1 R301W (antibody) |
| 15 |  | anti-CD20 IgG1 D249L (antibody) |
|  | 150 | anti-CD20 IgG1 256P430Q (antibody) |
| 173 |  | anti-CD20 IgG1 E382V (antibody) |
| 83 |  | anti-CD20 IgG1 A339L (antibody) |
|  | 74 | anti-CD20 IgG1 247L332E376I (antibody) |
| 126 |  | anti-CD20 IgG1 E283L (antibody) |
| 94 |  | anti-CD20 IgG1 D270N (antibody) |
| 129 |  | anti-CD20 IgG1 D376M (antibody) |
| 108 |  | anti-CD20 IgG1 A330K (antibody) |
| 65 |  | anti-CD20 IgG1 G341H (antibody) |
| 33 |  | anti-CD20 IgG1 Y373A (antibody) |
| 55 |  | anti-CD20 IgG1 Y373Q (antibody) |

| FcRn pH6.0 (% of wild type) | FcRn6.0 (% of wild type) | Substance |
| --- | --- | --- |
| 53 |  | anti-CD20 IgG1 G341N (antibody) |
| 3 |  | anti-CD20 IgG1 S254P (antibody) |
| 54 |  | anti-CD20 IgG1 Q311N (antibody) |
| 93 |  | anti-CD20 IgG1 K326W (antibody) |
| 0 |  | anti-CD20 IgG1 K248F (antibody) |
| 41 |  | anti-CD20 IgG1 R255K (antibody) |
| 9 |  | anti-CD20 IgG1 S254K (antibody) |
| 67 |  | anti-CD20 IgG1 G341K (antibody) |
| 152 |  | anti-CD20 IgG1 E380A (antibody) |
|  | 412 | anti-CD20 IgG1 286F311I (antibody) |
| 5 |  | anti-CD20 IgG1 T256F (antibody) |
|  | 156 | anti-CD20 IgG1 272R279L (antibody) |
| 51 |  | anti-CD20 IgG1 N315F (antibody) |
| 38 |  | anti-CD20 IgG1 K248Q (antibody) |
| 83 |  | anti-CD20 IgG1 H429M (antibody) |
| 114 |  | anti-CD20 IgG1 E318V (antibody) |
| 113 |  | anti-CD20 IgG1 V279F (antibody) |
| 65 |  | anti-CD20 IgG1 S426D (antibody) |
| 107 |  | anti-CD20 IgG1 D265K (antibody) |
| 86 |  | anti-CD20 IgG1 S267G (antibody) |
|  | 117 | anti-CD20 IgG1 256P332E440Y (antibody) |
| 85 |  | anti-CD20 IgG1 L235S (antibody) |
| 116 |  | anti-CD20 IgG1 D376Q (antibody) |
|  | 445 | anti-CD20 IgG1 258D286F (antibody) |
| 127 |  | anti-CD20 IgG1 E293V (antibody) |
| 320 |  | anti-CD20 IgG1 E430Q (antibody) |

| FcRn pH6.0 (% of wild type) | FcRn6.0 (% of wild type) | Substance |
| --- | --- | --- |
| 101 |  | anti-CD20 IgG1 P343S (antibody) |
| 157 |  | anti-CD20 IgG1 E272H (antibody) |
| 91 |  | anti-CD20 IgG1 G237N (antibody) |
| 89 |  | anti-CD20 IgG1 P343F (antibody) |
| 36 |  | anti-CD20 IgG1 G341I (antibody) |
| 76 |  | anti-CD20 IgG1 I377G (antibody) |
| 96 |  | anti-CD20 IgG1 S440I (antibody) |
| 387 |  | anti-CD20 IgG1 Q311M (antibody) |
| 558 |  | anti-CD20 IgG1 Q311V (antibody) |
| 83 |  | anti-CD20 IgG1 S267I (antibody) |
| 38 |  | anti-CD20 IgG1 Y373G (antibody) |
| 160 |  | anti-CD20 IgG1 T256A (antibody) |
| 87 |  | anti-CD20 IgG1 D270A (antibody) |
|  | 88 | anti-CD20 IgG1 330K332D (antibody) |
| 79 |  | anti-CD20 IgG1 P247I (antibody) |
| 192 |  | anti-CD20 IgG1 E430H (antibody) |
| 143 |  | anti-CD20 IgG1 E283I (antibody) |
| 204 |  | anti-CD20 IgG1 V279N (antibody) |
| 53 |  | anti-CD20 IgG1 Y373M (antibody) |
| 9 |  | anti-CD20 IgG1 S254Q (antibody) |
| 80 |  | anti-CD20 IgG1 S440M (antibody) |
| 180 |  | anti-CD20 IgG1 A378N (antibody) |
| 1 |  | anti-CD20 IgG1 D376W (antibody) |
| 101 |  | anti-CD20 IgG1 G236R (antibody) |
| 110 |  | anti-CD20 IgG1 Y373F (antibody) |
| 251 |  | anti-CD20 IgG1 D376V (antibody) |

| FcRn pH6.0 (% of wild type) | FcRn6.0 (% of wild type) | Substance |
| --- | --- | --- |
| 53 |  | anti-CD20 IgG1 D376Y (antibody) |
| 544 |  | anti-CD20 IgG1 T256D (antibody) |
| 69 |  | anti-CD20 IgG1 Y373V (antibody) |
| 101 |  | anti-CD20 IgG1 S304E (antibody) |
| 73 |  | anti-CD20 IgG1 S440E (antibody) |
|  | 338 | anti-CD20 IgG1 272R286F (antibody) |
| 31 |  | anti-CD20 IgG1 S254V (antibody) |
| 85 |  | anti-CD20 IgG1 L235G (antibody) |
| 129 |  | anti-CD20 IgG1 E272L (antibody) |
| 72 |  | anti-CD20 IgG1 P247R (antibody) |
| 98 |  | anti-CD20 IgG1 G385E (antibody) |
|  | 475 | anti-CD20 IgG1 283R376V (antibody) |
|  | 382 | anti-CD20 IgG1 376V434H (antibody) |
|  | 82 | anti-CD20 IgG1 314Y332E440Y (antibody) |
| 18 |  | anti-CD20 IgG1 P247M (antibody) |
| 137 |  | anti-CD20 IgG1 E430T (antibody) |
| 265 |  | anti-CD20 IgG1 V279T (antibody) |
| 7 |  | anti-CD20 IgG1 P247Y (antibody) |
| 202 |  | anti-CD20 IgG1 H285N (antibody) |
| 83 |  | anti-CD20 IgG1 V279I (antibody) |
| 137 |  | anti-CD20 IgG1 E382N (antibody) |
| 76 |  | anti-CD20 IgG1 G236Y (antibody) |
| 87 |  | anti-CD20 IgG1 L235E (antibody) |
